B1: Cross309×PDL1 (bispecific antibody, human IgG1, kappa, L234A L235A)
scFv: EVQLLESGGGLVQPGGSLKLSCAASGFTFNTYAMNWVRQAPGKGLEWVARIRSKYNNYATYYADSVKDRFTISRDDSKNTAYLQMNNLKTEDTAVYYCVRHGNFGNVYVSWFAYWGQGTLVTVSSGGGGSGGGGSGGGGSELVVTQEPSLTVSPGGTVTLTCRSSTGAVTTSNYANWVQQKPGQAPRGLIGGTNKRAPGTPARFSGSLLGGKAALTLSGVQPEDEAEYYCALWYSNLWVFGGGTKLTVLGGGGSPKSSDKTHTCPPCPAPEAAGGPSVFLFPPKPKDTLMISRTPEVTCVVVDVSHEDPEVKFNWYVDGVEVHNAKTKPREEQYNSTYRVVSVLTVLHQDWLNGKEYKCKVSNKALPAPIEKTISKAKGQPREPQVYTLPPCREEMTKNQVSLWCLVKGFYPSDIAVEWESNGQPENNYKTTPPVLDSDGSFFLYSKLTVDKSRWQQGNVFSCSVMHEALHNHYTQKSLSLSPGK
heavy: QVQLVQSGAEVKKPGASVKVSCKASGYSFTGYYMHWVRQAPGQGLEWIGRINPYNGATTYSQNFKDRATMTVDTSISTAYMELSRLRSDDTAVYYCVPTGMGYFLMDYWGQGTLVTVSSASTKGPSVFPLAPSSKSTSGGTAALGCLVKDYFPEPVTVSWNSGALTSGVHTFPAVLQSSGLYSLSSVVTVPSSSLGTQTYICNVNHKPSNTKVDKKVEPKSCDKTHTCPPCPAPEAAGGPSVFLFPPKPKDTLMISRTPEVTCVVVDVSHEDPEVKFNWYVDGVEVHNAKTKPREEQYNSTYRVVSVLTVLHQDWLNGKEYKCKVSNKALPAPIEKTISKAKGQPREPQVCTLPPSREEMTKNQVSLSCAVKGFYPSDIAVEWESNGQPENNYKTTPPVLDSDGSFFLVSKLTVDKSRWQQGNVFSCSVMHEALHNHYTQKSLSLSPGK
light: DIQLTQSPSFLSASVGDRVTITCKASQDVGSAVVWYQQKPGKAPKLLIYWASTRHTGVPSRFSGSGSGTEFTLTISSLQPEDFATYFCQQFTSYPTFGQGTKLEIKRTVAAPSVFIFPPSDEQLKSGTASVVCLLNNFYPREAKVQWKVDNALQSGNSQESVTEQDSKDSTYSLSSTLTLSKADYEKHKVYACEVTHQGLSSPVTKSFNRGEC
B2: Cross323×PDL1 (bispecific antibody, human IgG1, kappa, L234A L235A)
scFv: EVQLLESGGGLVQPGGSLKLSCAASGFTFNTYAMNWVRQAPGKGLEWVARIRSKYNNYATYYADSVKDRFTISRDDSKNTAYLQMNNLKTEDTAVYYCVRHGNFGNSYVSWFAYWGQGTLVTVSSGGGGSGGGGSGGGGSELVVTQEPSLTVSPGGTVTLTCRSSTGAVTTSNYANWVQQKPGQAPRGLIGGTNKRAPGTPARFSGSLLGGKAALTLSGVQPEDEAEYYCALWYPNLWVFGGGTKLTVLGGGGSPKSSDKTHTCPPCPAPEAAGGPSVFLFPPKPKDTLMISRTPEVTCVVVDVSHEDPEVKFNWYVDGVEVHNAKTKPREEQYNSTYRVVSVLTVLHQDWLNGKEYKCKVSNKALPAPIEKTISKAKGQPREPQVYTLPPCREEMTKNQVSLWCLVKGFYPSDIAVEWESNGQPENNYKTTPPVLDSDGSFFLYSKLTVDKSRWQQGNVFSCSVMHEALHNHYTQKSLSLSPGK
heavy: B1 heavy
light: B1 light
B3: Cross318×PDL1 (bispecific antibody, human IgG1, kappa, L234A L235A)
scFv: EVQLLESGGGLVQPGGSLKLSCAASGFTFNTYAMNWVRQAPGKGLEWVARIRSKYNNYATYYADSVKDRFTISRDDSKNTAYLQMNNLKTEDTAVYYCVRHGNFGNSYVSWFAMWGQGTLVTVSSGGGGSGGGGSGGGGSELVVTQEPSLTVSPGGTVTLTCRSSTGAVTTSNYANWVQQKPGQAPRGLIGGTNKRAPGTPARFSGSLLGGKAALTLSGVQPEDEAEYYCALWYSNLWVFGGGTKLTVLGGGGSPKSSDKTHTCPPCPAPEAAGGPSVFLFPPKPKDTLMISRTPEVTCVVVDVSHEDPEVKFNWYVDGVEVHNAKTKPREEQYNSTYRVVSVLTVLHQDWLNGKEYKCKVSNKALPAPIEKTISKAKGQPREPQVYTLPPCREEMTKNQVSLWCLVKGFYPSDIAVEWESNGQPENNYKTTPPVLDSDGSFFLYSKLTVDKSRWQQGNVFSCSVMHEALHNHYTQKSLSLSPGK
heavy: B1 heavy
light: B1 light
B4: Cross325×PDL1 (bispecific antibody, human IgG1, kappa, L234A L235A)
scFv: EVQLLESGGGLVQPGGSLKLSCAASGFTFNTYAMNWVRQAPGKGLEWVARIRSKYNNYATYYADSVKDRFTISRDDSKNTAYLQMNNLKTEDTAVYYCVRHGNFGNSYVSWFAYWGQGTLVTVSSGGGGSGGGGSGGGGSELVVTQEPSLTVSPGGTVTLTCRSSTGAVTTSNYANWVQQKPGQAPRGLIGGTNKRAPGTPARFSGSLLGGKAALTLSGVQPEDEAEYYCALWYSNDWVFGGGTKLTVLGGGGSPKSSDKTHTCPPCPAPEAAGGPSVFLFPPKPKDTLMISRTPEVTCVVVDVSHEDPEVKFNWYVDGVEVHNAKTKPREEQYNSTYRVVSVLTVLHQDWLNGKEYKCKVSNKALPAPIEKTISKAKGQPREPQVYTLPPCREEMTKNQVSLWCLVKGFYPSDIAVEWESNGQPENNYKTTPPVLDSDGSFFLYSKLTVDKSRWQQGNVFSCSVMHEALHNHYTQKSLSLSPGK
heavy: B1 heavy
light: B1 light

Assays:
[1] = target: T1, PDL1 on A-375 melanoma cells, HCT-15 colorectal cancer cells and A549 lung cancer cells (UniProt Q9NZQ7 19-290, limits assumed); assay: flow cytometry, A549 cells, MFI [panel B]
T1 construct: whole, on cells
T1 sequence (Q9NZQ7 19-290 limits assumed): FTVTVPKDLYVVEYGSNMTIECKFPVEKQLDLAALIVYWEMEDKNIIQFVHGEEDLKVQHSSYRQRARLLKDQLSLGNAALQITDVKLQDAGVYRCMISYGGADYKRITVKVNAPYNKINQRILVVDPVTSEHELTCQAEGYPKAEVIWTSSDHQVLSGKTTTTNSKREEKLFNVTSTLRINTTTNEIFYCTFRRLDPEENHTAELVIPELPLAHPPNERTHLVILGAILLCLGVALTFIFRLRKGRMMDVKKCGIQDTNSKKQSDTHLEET
Procedure, shortened: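 Cells were blocked with goat serum at 4° C for 30 min, then incubated with serially diluted bispecific antibodies or hIgG1LALA control at 4° C for 30 min. Bound antibody was detected with Alexa-647 anti-human IgG (4° C, 30 min, dark) and read by flow cytometry.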

PDL1 protein [2] = target: T2, PDL1 protein (UniProt Q9NZQ7 19-238); assay: ELISA, coated PDL1 protein, OD450 [panel A]
T2 construct: Bought recombinant protein
T2 sequence (Q9NZQ7 19-238 limits assumed): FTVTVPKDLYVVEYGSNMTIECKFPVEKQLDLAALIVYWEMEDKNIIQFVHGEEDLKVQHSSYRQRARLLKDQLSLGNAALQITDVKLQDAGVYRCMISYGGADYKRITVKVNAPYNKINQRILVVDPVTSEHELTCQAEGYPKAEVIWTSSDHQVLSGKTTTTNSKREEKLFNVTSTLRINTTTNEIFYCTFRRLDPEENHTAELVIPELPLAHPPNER
Procedure, shortened: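 PDL1 protein coated at 2 μg/ml overnight at 4 °C, blocked with PBS/10% BSA; serially diluted bispecific antibodies or control IgG1LALA bound 1 h at 37 °C. Detection with HRP anti-human Fab secondary antibody and TMB for 3 min, stopped with sulfuric acid, absorbance at 450 nm.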

[3] = target: T1, PDL1 on A-375 melanoma cells, HCT-15 …; assay: flow cytometry, A-375 cells, binding ratio % [panel A]
Method: (2) The tumor cells were diluted to 2×10⁶/ml with PBS and added to a 1.5 ml EP tube at a volume of 100 μl/tube, and goat serum was added thereto at 10 μl/tube. The cells were blocked at 4° C. for 30 min. The serially diluted bispecific antibodies, Cross3×Trop2, Cross303×Trop2, Cross307×Trop2, Cross308×Trop2, Cross309×Trop2, Cross310×Trop2, Cross311×Trop2, Cross312×Trop2, Cross313×Trop2, Cross314×Trop2, Cross316×Trop2, Cross317×Trop2, Cross318×Trop2, Cross323×Trop2, Cross325×Trop2, Cross326×Trop2, and Cross3×PDL1, Cross303×PDL1, Cross307×PDL1, Cross308×PDL1, Cross309×PDL1, Cross310×PDL1, Cross311×PDL1, Cross312×PDL1, Cross313×PDL1, Cross314×PDL1, Cross316×PDL1, Cross317×PDL1, Cross318×PDL1, Cross323×PDL1, Cross325×PDL1, Cross326×PDL1, and control hIgG1LALA (purchased from Bio-Tech) were added and incubated at 4° C. for 30 min. 1 ml of PBS was added to the EP tube, followed by centrifugation at 3500 rpm for 5 min at 4° C. The supernatant was discarded, and the cells were washed again with PBS. After centrifugation, the supernatant was completely discarded, and the cells were resuspended with PBS at 100 μl/tube. Alexa-647-labeled goat anti-human IgG secondary antibody (purchased from Jackson lab) was added at 1 μl/tube and incubated at 4° C. in the dark for 30 min. The cells were washed twice with PBS, and the supernatant was completely discarded after centrifugation. The cells were resuspended with PBS at 200 μl/tube and assay was performed using the flow cytometry.

PDL1 protein [4] = target: T2, PDL1 protein; assay: ELISA, coated PDL1 protein, OD450 [panel B]
Method: (3) PDL1 protein (purchased from Acro) was diluted to 2 μg/ml with PBS buffer, added to a 96-well plate at a volume of 100 μL/well, and placed at 4° C. overnight. The PBS buffer in the 96-well plate was aspirated, and the plate was washed 6 times with PBST (pH 7.2 PBS containing 0.10% Tween 20) buffer. Then, PBS/10% BSA was added at 200 μL/well and incubated at 37° C. for 2 h for blocking. The blocking solution was removed, and the plate was washed six times with PBST. Then, the to-be-tested bispecific antibodies serially diluted with PBST/0.05% BSA, Cross3×PDL1, Cross303×PDL1, Cross307×PDL1, Cross308×PDL1, Cross309×PDL1, Cross310×PDL1, Cross311×PDL1, Cross312×PDL1, Cross313×PDL1, Cross314×PDL1, Cross316×PDL1, Cross317×PDL1, Cross318×PDL1, Cross323×PDL1, Cross325×PDL1, Cross326×PDL1, and control IgG1LALA (purchased from Bio-Tech) were added at 100 μL/well, and incubated at 37° C. for 1 h. The reaction system was removed, and the plate was washed 6 times with PBST. Then, the cells were incubated at 37° C. for 1 h with HRP (horseradish peroxidase)-labeled anti-human secondary antibody (Fab specific) (purchased from Sigma) serially diluted with PBST/0.05% BSA at 100 μL/well. After the plate was washed six times with PBST, TMB (tetramethylbenzidine) was added at 80 μL/well and incubated at room temperature for 3 min. 4 M sulfuric acid was added at 80 μL/well to terminate the reaction. The absorbance was read at 450 nm using a microplate reader.

CD3E&D protein = target: T3, CD3E&D protein (UniProt P04234 22-105); assay: ELISA, coated CD3E&D protein, OD450 [panel B]
T3 construct: Purchased from Acro; also called CD3 E&D antigens; CD3E&D antigen protein
T3 sequence (chain, as listed by the source limits assumed, chain 1 of 2): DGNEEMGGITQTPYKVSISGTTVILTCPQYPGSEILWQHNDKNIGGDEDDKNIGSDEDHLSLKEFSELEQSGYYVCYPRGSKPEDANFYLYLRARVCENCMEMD
T3 sequence (P04234 22-105 limits assumed, chain 2 of 2): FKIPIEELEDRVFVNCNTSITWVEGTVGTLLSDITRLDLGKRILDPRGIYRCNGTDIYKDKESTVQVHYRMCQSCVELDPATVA
Description: In this example, the binding properties of the CD3×Trop2 and CD3×PDL1 bispecific antibody (the production method and the amino acid sequences of the heavy and light chains were shown in Example 1) were detected by using ELISA. The CD3E&D, Trop2, or PDL1 protein was coated onto 96-well plates by inventors, and the strength of the signal after the addition of the antibody was used to determine the binding properties of the antibody and the corresponding protein.
(1) CD3E&D protein (purchased from Acro) was diluted to 2 μg/ml with PBS buffer, added to a 96-well plate at a volume of 100 μL/well, and placed at 4° C. overnight. The PBS buffer in the 96-well plate was aspirated, and the plate was washed 6 times with PBST (pH 7.2 PBS containing 0.1% Tween 20) buffer. Then, 200 μL/well PBS/10% BSA was added and incubated at 37° C. for 2 h for blocking. The blocking solution was removed, and the plate was washed 6 times with PBST. Then, the to-be-tested bispecific antibodies serially diluted with PBST/0.05% BSA, Cross3×Trop2, Cross303×Trop2, Cross307×Trop2, Cross308×Trop2, Cross309×Trop2, Cross310×Trop2, Cross311×Trop2, Cross312×Trop2, Cross313×Trop2, Cross314×Trop2, Cross316×Trop2, Cross317×Trop2, Cross318×Trop2, Cross323×Trop2, Cross325×Trop2, Cross326×Trop2, Cross3×PDL1, Cross303×PDL1, Cross307×PDL1, Cross308×PDL1, Cross309×PDL1, Cross310×PDL1, Cross311×PDL1, Cross312×PDL1, Cross313×PDL1, Cross314×PDL1, Cross316×PDL1, Cross317×PDL1, Cross318×PDL1, Cross323×PDL1, Cross325×PDL1, Cross326×PDL1, and control IgG1LALA (purchased from Bio-Tech) were added at 100 μL/well, and incubated at 37° C. for 1 h. The reaction system was removed, and the plate was washed 6 times with PBST. Then, the cells were incubated at 37° C. for 1 h with HRP (horseradish peroxidase)-labeled anti-human secondary antibody (Fab specific) (purchased from Sigma) diluted with PBST/0.05% BSA at 100 μL/well. After the plate was washed six times with PBST, 80 μL/well TMB (tetramethylbenzidine) was added and incubated at room temperature for 3 min. […] The absorbance was read at 450 nm using a microplate reader.

CD3 on CD8 T cells = target: T4, CD3 on CD8 T cells (Homo sapiens (Human), UniProt P07766 23-207); assay: flow cytometry, CD8 T cells in PBMCs, binding ratio % [panel A]
T4 construct: Native CD3 complex on CD8 T cells among PBMCs; also called T cells (PBMCs gated with anti-human CD8 antibody)
T4 sequence (P07766 23-207 limits assumed): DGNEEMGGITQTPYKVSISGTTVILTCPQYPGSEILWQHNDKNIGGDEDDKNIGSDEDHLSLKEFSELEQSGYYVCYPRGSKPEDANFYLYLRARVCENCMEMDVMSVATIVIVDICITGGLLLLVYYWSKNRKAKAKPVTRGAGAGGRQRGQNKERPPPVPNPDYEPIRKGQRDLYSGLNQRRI
Method: (1) PBMCs were diluted to 2×10⁶/ml with PBS and added to a 1.5 ml EP tube at 100 μl/tube, goat serum was added thereto at 10 μl/tube. The cells were blocked at 4° C. for 30 min. The serially diluted bispecific antibodies, Cross3×Trop2, Cross303×Trop2, Cross307×Trop2, Cross308×Trop2, Cross309×Trop2, Cross310×Trop2, Cross311×Trop2, Cross312×Trop2, Cross313×Trop2, Cross314×Trop2, Cross316×Trop2, Cross317×Trop2, Cross318×Trop2, Cross323×Trop2, Cross325×Trop2, Cross326×Trop2, Cross3×PDL1, Cross313×PDL1, Cross316×PDL1, Cross325×PDL1, and control hIgG1LALA (purchased from Bio-Tech) were added and incubated at 4° C. for 30 min. 1 ml of PBS was added to the EP tube, followed by centrifugation at 3500 rpm for 5 min at 4° C. The supernatant was discarded, and the system was washed again with PBS. After centrifugation, the supernatant was discarded, and the cells were resuspended with PBS at 100 μl/tube. 1 μl/tube Alexa-647-labeled goat anti-human IgG secondary antibody (purchased from Jackson lab) and 0.5 μl/tube PerCP-Cy5.5-labeled anti-human CD8 antibody were added and incubated at 4° C. in the dark for 30 min. The cells were washed twice with PBS. After centrifugation, the supernatant was discarded. The cells were resuspended with 200 μl/tube of PBS and assay is performed by flow cytometry.

Row | Binder | EC50 (read off the curve) [1] [µg/mL] | EC50 (read off the curve) (PDL1 protein [2]) [µg/mL] | EC50 (read off the curve) [3] [µg/mL] | EC50 (read off the curve) (PDL1 protein [4]) [µg/mL] | EC50 (read off the curve) (CD3E&D protein) [µg/mL] | EC50 (read off the curve) (CD3 on CD8 T cells) [µg/mL]
1 | B1 | ~1 | ~0.2 | ~0.4 |  |  | 
2 | B2 |  |  |  | ~0.2 | ~1 | 
3 | B3 | ~1 |  |  | ~0.2 | ~1 | 
4 | B4 | ~1 |  |  | ~0.1 | ~0.7 | ~0.4

Source: patent US20260125472A1 (HEFEI TG IMMUNOPHARMA, published 2026)
